Five substances from PMC4475061 can be followed below.

Bounds are passed on as bounds.

Assay [1] has as its target IST1 MIM1 peptide (residues 344–366), fluorescently labeled (human). In words: fluorescence polarisation; 250 pM Oregon Green 488-labeled IST1 peptides, twofold dilutions of ULK3 proteins; 25 mM Tris pH 7.2, 150 mM NaCl, 0.1 mg/mL BSA, 0.01% Tween-20, 1 mM DTT; 1:1 fit. (Fluorescence polarisation rises when a labelled molecule tumbles more slowly, as on binding a larger partner.)

Assay [2] concerns the target IST1 MIMs peptide (residues 316–366), fluorescently labeled (human). The assay is described as above.
In assay [3] the target is CHMP1A (positive-control partner of the Gal4-CHMP1B constructs in the two-hybrid assay). In words: yeast two-hybrid (β-galactosidase activity). The conditions noted are these: parent: est. 0.71; read off a plot.

In general, Kd refers to the equilibrium constant for the complex coming apart. A high value points to weaker binding. With “ULK3 MIT2 (residues 359–449) (from UniProt Q6PHR2 359-449) (domain or fragment)”, the Kd in assay [1] worked out at 0.77 µM.

In assay [2], “ULK3(MIT)2 (residues 277–449) (from UniProt Q6PHR2 277-449) (domain or fragment)” had a dissociation constant Kd of 0.2 µM. Regarding “ULK3(MIT)2 M434D (from UniProt Q6PHR2 277-449) (domain or fragment)”, in assay [2], the fold reduction of binding against wild-type ULK3(MIT)2 was over 100 fold. Consider “CHMP1B WT fused to the Gal4 DNA-binding domain (from UniProt Q7LBR1) T178R; A181R; E184R”, for which the response in assay [3] is 0.89. In the case of “ULK3(MIT)2 V338D (from UniProt Q6PHR2 277-449) (domain or fragment)”, in assay [2], the fold reduction of binding against wild-type ULK3(MIT)2 is under 2 fold.
